The record followed here is article PMC7085345 (The Biochemical journal, 2019).

Like-named read-outs stand apart in the source and are kept apart here.

What all share (assay): FRET or BRET
A general note: In BRET a luciferase serves as donor, and the signal depends on an acceptor being close.

Series [1] deals with the molecule itself.
Series [2] concerns the molecule itself. The source holds these as a separate data set.
Series [3] concerns the molecule itself. This is another data set of the same source.
Series [4] deals with the molecule itself. The source holds these as a separate data set.
Series [5] deals with the molecule itself. This is another data set of the same source.

B1: CYP2E1-BODIPY(1:2): N-terminally truncated (Δ3–20), C-terminally His-tagged CYP2E1 labeled with BODIPY 577/618 maleimide at 1:2 protein-to-label ratio (enzyme, human, UniProt P05181 1-493, looked up)
chain: MSSMWRQVHSSWNLPPGPFPLPIIGNLFQLELKNIPKSFTRLAQRFGPVFTLYVGSQRMVVMHGYKAVKEALLDYKDEFSGRGDLPAFHAHRDRGIIFNNGPTWKDIRRFSLTTLRNYGMGKQGNESRIQREAHFLLEALRKTQGQPFDPTFLIGCAPCNVIADILFRKHFDYNDEKFLRLMYLFNENFHLLSTPWLQLYNNFPSFLHYLPGSHRKVIKNVAEVKEYVSERVKEHHQSLDPNCPRDLTDCLLVEMEKEKHSAERLYTMDGITVTVADLFFAGTETTSTTLRYGLLILMKYPEIEEKLHEEIDRVIGPSRIPAIKDRQEMPYMDAVVHEIQRFITLVPSNLPHEATRDTIFRGYLIPKGTVVVPTLDSVLYDNQEFPDPEKFKPEHFLNENGKFKYSDYFKPFSTGKRVCAGEGLARMELFLLLCAILQHFNLKPLVDPKDIDLSPIHIGFGCIPPRYKLCVIPRS
modifications: BODIPY 577/618 maleimide on cysteines, two molar equivalents (presumably Cys488 and Cys261, Cys268 and/or Cys480)
As to B1, the “(Lipid/CYP2E1)50%” value was 393 lipid-to-P450 molar ratio in “FRET or BRET [1]”; 4320 lipid-to-P450 molar ratio in “FRET or BRET [2]”; 383 lipid-to-P450 molar ratio in the series “FRET or BRET [3]”; 5890 lipid-to-P450 molar ratio in “FRET or BRET [4]”; 2440 lipid-to-P450 molar ratio in the series “FRET or BRET [5]”.
